Reference: patent US20230002460A1 (YUHAN, published 2023)

Each binder was assayed against T1, GDF15 receptors GFRAL and RET, overexpressed together on HEK293 cells (UniProt Q6UXV0 19-394; P07949 29-1114, limits assumed) (assay: cell-based or functional assay).
T1 sequence (Q6UXV0 19-394 limits assumed, chain 1 of 2): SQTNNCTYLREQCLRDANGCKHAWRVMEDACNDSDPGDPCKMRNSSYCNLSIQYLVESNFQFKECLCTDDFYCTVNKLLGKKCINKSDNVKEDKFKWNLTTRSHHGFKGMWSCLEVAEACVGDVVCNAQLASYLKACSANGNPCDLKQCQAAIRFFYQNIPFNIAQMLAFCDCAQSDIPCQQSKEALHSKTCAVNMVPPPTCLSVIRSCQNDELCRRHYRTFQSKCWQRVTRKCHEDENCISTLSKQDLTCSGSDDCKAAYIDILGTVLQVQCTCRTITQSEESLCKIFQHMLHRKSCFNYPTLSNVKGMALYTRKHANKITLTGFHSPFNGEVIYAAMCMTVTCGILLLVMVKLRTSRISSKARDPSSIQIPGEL
T1 sequence (P07949 29-1114 limits assumed, chain 2 of 2): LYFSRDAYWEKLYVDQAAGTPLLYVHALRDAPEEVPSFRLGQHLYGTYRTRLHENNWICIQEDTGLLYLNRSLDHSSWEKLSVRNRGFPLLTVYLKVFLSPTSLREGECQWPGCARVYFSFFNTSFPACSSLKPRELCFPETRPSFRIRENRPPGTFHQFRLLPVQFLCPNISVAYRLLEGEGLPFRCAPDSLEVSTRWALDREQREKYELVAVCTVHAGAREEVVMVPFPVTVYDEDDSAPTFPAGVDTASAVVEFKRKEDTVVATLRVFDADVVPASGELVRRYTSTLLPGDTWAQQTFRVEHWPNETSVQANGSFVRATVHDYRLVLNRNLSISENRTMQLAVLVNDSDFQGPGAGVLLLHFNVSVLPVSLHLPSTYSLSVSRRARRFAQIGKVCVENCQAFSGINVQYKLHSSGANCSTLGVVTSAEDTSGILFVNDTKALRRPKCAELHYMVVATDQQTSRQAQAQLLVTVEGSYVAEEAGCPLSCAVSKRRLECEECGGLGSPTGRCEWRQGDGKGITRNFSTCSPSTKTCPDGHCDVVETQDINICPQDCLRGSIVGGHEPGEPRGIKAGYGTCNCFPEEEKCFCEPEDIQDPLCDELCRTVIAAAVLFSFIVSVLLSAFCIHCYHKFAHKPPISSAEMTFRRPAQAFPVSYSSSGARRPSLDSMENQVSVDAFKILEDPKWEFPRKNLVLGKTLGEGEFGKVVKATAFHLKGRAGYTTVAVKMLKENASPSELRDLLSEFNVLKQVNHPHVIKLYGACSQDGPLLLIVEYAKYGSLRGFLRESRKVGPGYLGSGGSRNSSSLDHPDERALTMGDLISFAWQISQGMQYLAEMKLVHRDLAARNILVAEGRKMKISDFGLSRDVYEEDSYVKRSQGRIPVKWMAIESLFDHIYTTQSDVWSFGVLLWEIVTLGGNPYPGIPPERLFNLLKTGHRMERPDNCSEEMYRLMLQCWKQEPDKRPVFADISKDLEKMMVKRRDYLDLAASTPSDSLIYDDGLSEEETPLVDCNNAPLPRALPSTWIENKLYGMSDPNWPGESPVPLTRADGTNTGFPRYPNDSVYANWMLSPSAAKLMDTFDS

EC50 | Emax (%) | Binder
9.7 nM | 65.6% | long-acting GDF15 fusion protein (dimer) FM11-1 + Fc_hole (ΔN3, G4N, D5S, H6T, S64R; linker GS(G4S)3) (Fc fusion) chain 1: APEAAGGPSVFLFPPKPKDTLMISRTPEVTCVVVDVSHEDPEVKFNWYVDGVEVHNAKTKPREEQYASTYRVVSVLTVLHQDWLNGKEYKCKVSNKALPAPIEKTISKAKGQPREPQVYTLPPSREEMTKNQVSLWCLVKGFYPSDIAVEWESNGQPENNYKTTPPVLDSDGSFFLYSKLTVDKSRWQQGNVFSCSVMHEALHNHYTQKSLSLSPGKGSGGGGSGGGGSGGGGSNSTCPLGPGRCCRLHTVRASLEDLGWADWVLSPREVQVTMCIGACPSQFRAANMHAQIKTRLHRLKPDTVPAPCCVPASYNPMVLIQKTDTGVSLQTYDDLLAKDCHCI chain 2: APEAAGGPSVFLFPPKPKDTLMISRTPEVTCVVVDVSHEDPEVKFNWYVDGVEVHNAKTKPREEQYASTYRVVSVLTVLHQDWLNGKEYKCKVSNKALPAPIEKTISKAKGQPREPQVYTLPPSREEMTKNQVSLSCAVKGFYPSDIAVEWESNGQPENNYKTTPPVLDSDGSFFLVSKLTVDKSRWQQGNVFSCSVMHEALHNHYTQKSLSLSPGK
5.1 nM | 68.2% | long-acting GDF15 fusion protein (dimer) FM11-5 + Fc_hole (ΔN3, G4N, D5S, H6T, S64R; linker GSGGSS(PT)10) (Fc fusion) chain 1: APEAAGGPSVFLFPPKPKDTLMISRTPEVTCVVVDVSHEDPEVKFNWYVDGVEVHNAKTKPREEQYASTYRVVSVLTVLHQDWLNGKEYKCKVSNKALPAPIEKTISKAKGQPREPQVYTLPPSREEMTKNQVSLWCLVKGFYPSDIAVEWESNGQPENNYKTTPPVLDSDGSFFLYSKLTVDKSRWQQGNVFSCSVMHEALHNHYTQKSLSLSPGKGSGGSSPTPTPTPTPTPTPTPTPTPTNSTCPLGPGRCCRLHTVRASLEDLGWADWVLSPREVQVTMCIGACPSQFRAANMHAQIKTRLHRLKPDTVPAPCCVPASYNPMVLIQKTDTGVSLQTYDDLLAKDCHCI chain 2: APEAAGGPSVFLFPPKPKDTLMISRTPEVTCVVVDVSHEDPEVKFNWYVDGVEVHNAKTKPREEQYASTYRVVSVLTVLHQDWLNGKEYKCKVSNKALPAPIEKTISKAKGQPREPQVYTLPPSREEMTKNQVSLSCAVKGFYPSDIAVEWESNGQPENNYKTTPPVLDSDGSFFLVSKLTVDKSRWQQGNVFSCSVMHEALHNHYTQKSLSLSPGK
7.7 nM | 79.4% | long-acting GDF15 fusion protein (dimer) FM11-2 + Fc_hole (ΔN3, G4N, D5S, H6T, S64R; linker GS(G4S)5) (Fc fusion) chain 1: APEAAGGPSVFLFPPKPKDTLMISRTPEVTCVVVDVSHEDPEVKFNWYVDGVEVHNAKTKPREEQYASTYRVVSVLTVLHQDWLNGKEYKCKVSNKALPAPIEKTISKAKGQPREPQVYTLPPSREEMTKNQVSLWCLVKGFYPSDIAVEWESNGQPENNYKTTPPVLDSDGSFFLYSKLTVDKSRWQQGNVFSCSVMHEALHNHYTQKSLSLSPGKGSGGGGSGGGGSGGGGSGGGGSGGGGSNSTCPLGPGRCCRLHTVRASLEDLGWADWVLSPREVQVTMCIGACPSQFRAANMHAQIKTRLHRLKPDTVPAPCCVPASYNPMVLIQKTDTGVSLQTYDDLLAKDCHCI chain 2: APEAAGGPSVFLFPPKPKDTLMISRTPEVTCVVVDVSHEDPEVKFNWYVDGVEVHNAKTKPREEQYASTYRVVSVLTVLHQDWLNGKEYKCKVSNKALPAPIEKTISKAKGQPREPQVYTLPPSREEMTKNQVSLSCAVKGFYPSDIAVEWESNGQPENNYKTTPPVLDSDGSFFLVSKLTVDKSRWQQGNVFSCSVMHEALHNHYTQKSLSLSPGK
6.8 nM | 80.3% | long-acting GDF15 fusion protein (dimer) FM11-6 + Fc_hole (ΔN3, G4N, D5S, H6T, S64R; linker GS(EAAAK)5) (Fc fusion) chain 1: APEAAGGPSVFLFPPKPKDTLMISRTPEVTCVVVDVSHEDPEVKFNWYVDGVEVHNAKTKPREEQYASTYRVVSVLTVLHQDWLNGKEYKCKVSNKALPAPIEKTISKAKGQPREPQVYTLPPSREEMTKNQVSLWCLVKGFYPSDIAVEWESNGQPENNYKTTPPVLDSDGSFFLYSKLTVDKSRWQQGNVFSCSVMHEALHNHYTQKSLSLSPGKGSEAAAKEAAAKEAAAKEAAAKEAAAKNSTCPLGPGRCCRLHTVRASLEDLGWADWVLSPREVQVTMCIGACPSQFRAANMHAQIKTRLHRLKPDTVPAPCCVPASYNPMVLIQKTDTGVSLQTYDDLLAKDCHCI chain 2: APEAAGGPSVFLFPPKPKDTLMISRTPEVTCVVVDVSHEDPEVKFNWYVDGVEVHNAKTKPREEQYASTYRVVSVLTVLHQDWLNGKEYKCKVSNKALPAPIEKTISKAKGQPREPQVYTLPPSREEMTKNQVSLSCAVKGFYPSDIAVEWESNGQPENNYKTTPPVLDSDGSFFLVSKLTVDKSRWQQGNVFSCSVMHEALHNHYTQKSLSLSPGK
7.8 nM | 81% | long-acting GDF15 fusion protein (dimer) FM11-3 + Fc_hole (ΔN3, G4N, D5S, H6T, S64R; linker GS(G4S)7) (Fc fusion) chain 1: APEAAGGPSVFLFPPKPKDTLMISRTPEVTCVVVDVSHEDPEVKFNWYVDGVEVHNAKTKPREEQYASTYRVVSVLTVLHQDWLNGKEYKCKVSNKALPAPIEKTISKAKGQPREPQVYTLPPSREEMTKNQVSLWCLVKGFYPSDIAVEWESNGQPENNYKTTPPVLDSDGSFFLYSKLTVDKSRWQQGNVFSCSVMHEALHNHYTQKSLSLSPGKGSGGGGSGGGGSGGGGSGGGGSGGGGSGGGGSGGGGSNSTCPLGPGRCCRLHTVRASLEDLGWADWVLSPREVQVTMCIGACPSQFRAANMHAQIKTRLHRLKPDTVPAPCCVPASYNPMVLIQKTDTGVSLQTYDDLLAKDCHCI chain 2: APEAAGGPSVFLFPPKPKDTLMISRTPEVTCVVVDVSHEDPEVKFNWYVDGVEVHNAKTKPREEQYASTYRVVSVLTVLHQDWLNGKEYKCKVSNKALPAPIEKTISKAKGQPREPQVYTLPPSREEMTKNQVSLSCAVKGFYPSDIAVEWESNGQPENNYKTTPPVLDSDGSFFLVSKLTVDKSRWQQGNVFSCSVMHEALHNHYTQKSLSLSPGK
45.4 nM | 105% | long-acting GDF15 fusion protein (dimer) FM11-4 + Fc_hole (ΔN3, G4N, D5S, H6T, S64R; linker GS(EEEA)6) (Fc fusion) chain 1: APEAAGGPSVFLFPPKPKDTLMISRTPEVTCVVVDVSHEDPEVKFNWYVDGVEVHNAKTKPREEQYASTYRVVSVLTVLHQDWLNGKEYKCKVSNKALPAPIEKTISKAKGQPREPQVYTLPPSREEMTKNQVSLWCLVKGFYPSDIAVEWESNGQPENNYKTTPPVLDSDGSFFLYSKLTVDKSRWQQGNVFSCSVMHEALHNHYTQKSLSLSPGKGSEEEAEEEAEEEAEEEAEEEAEEEANSTCPLGPGRCCRLHTVRASLEDLGWADWVLSPREVQVTMCIGACPSQFRAANMHAQIKTRLHRLKPDTVPAPCCVPASYNPMVLIQKTDTGVSLQTYDDLLAKDCHCI chain 2: APEAAGGPSVFLFPPKPKDTLMISRTPEVTCVVVDVSHEDPEVKFNWYVDGVEVHNAKTKPREEQYASTYRVVSVLTVLHQDWLNGKEYKCKVSNKALPAPIEKTISKAKGQPREPQVYTLPPSREEMTKNQVSLSCAVKGFYPSDIAVEWESNGQPENNYKTTPPVLDSDGSFFLVSKLTVDKSRWQQGNVFSCSVMHEALHNHYTQKSLSLSPGK

Target: T1, GDF15 receptors GFRAL and RET, …
Assay: cell-based or functional assay
Remark: another data set of the same source

EC50 | Emax (%) [relative to FWT 100%] | Binder
5.6 nM | 100% | long-acting GDF15 fusion protein ΔN2, S97N (Fc fusion) chain 1: APALAGGPSVFLFPPKPKDTLMISRTPEVTCVVVDVSHEDPEVKFNWYVDGVEVHNAKTKPREEQYNSTYRVVSVLTVLHQDWLNGKEYKCKVSNKALPAPIEKTISKAKGQPREPQVYTLPPSREEMTKNQVSLWCLVKGFYPSDIAVEWESNGQPENNYKTTPPVLDSDGSFFLYSKLTVDKSRWQQGNVFSCSVMHEALHNHYTQKSLSLSPGKGGGGSGGGGSGGGGSGGGGSGGGGSNGDHCPLGPGRCCRLHTVRASLEDLGWADWVLSPREVQVTMCIGACPSQFRAANMHAQIKTSLHRLKPDTVPAPCCVPASYNPMVLIQKTDTGVNLQTYDDLLAKDCHCI chain 2: not shown
19.4 nM | 51.3% | long-acting GDF15 fusion protein ΔN2, W32F (Fc fusion) chain 1: APALAGGPSVFLFPPKPKDTLMISRTPEVTCVVVDVSHEDPEVKFNWYVDGVEVHNAKTKPREEQYNSTYRVVSVLTVLHQDWLNGKEYKCKVSNKALPAPIEKTISKAKGQPREPQVYTLPPSREEMTKNQVSLWCLVKGFYPSDIAVEWESNGQPENNYKTTPPVLDSDGSFFLYSKLTVDKSRWQQGNVFSCSVMHEALHNHYTQKSLSLSPGKGGGGSGGGGSGGGGSGGGGSGGGGSNGDHCPLGPGRCCRLHTVRASLEDLGWADFVLSPREVQVTMCIGACPSQFRAANMHAQIKTSLHRLKPDTVPAPCCVPASYNPMVLIQKTDTGVSLQTYDDLLAKDCHCI chain 2: not shown
12.9 nM | 16.3% | long-acting GDF15 fusion protein ΔN2, Y101Q (Fc fusion) chain 1: APALAGGPSVFLFPPKPKDTLMISRTPEVTCVVVDVSHEDPEVKFNWYVDGVEVHNAKTKPREEQYNSTYRVVSVLTVLHQDWLNGKEYKCKVSNKALPAPIEKTISKAKGQPREPQVYTLPPSREEMTKNQVSLWCLVKGFYPSDIAVEWESNGQPENNYKTTPPVLDSDGSFFLYSKLTVDKSRWQQGNVFSCSVMHEALHNHYTQKSLSLSPGKGGGGSGGGGSGGGGSGGGGSGGGGSNGDHCPLGPGRCCRLHTVRASLEDLGWADWVLSPREVQVTMCIGACPSQFRAANMHAQIKTSLHRLKPDTVPAPCCVPASYNPMVLIQKTDTGVSLQTQDDLLAKDCHCI chain 2: not shown
31.8 nM | 37.5% | long-acting GDF15 fusion protein ΔN2, Y101F (Fc fusion) chain 1: APALAGGPSVFLFPPKPKDTLMISRTPEVTCVVVDVSHEDPEVKFNWYVDGVEVHNAKTKPREEQYNSTYRVVSVLTVLHQDWLNGKEYKCKVSNKALPAPIEKTISKAKGQPREPQVYTLPPSREEMTKNQVSLWCLVKGFYPSDIAVEWESNGQPENNYKTTPPVLDSDGSFFLYSKLTVDKSRWQQGNVFSCSVMHEALHNHYTQKSLSLSPGKGGGGSGGGGSGGGGSGGGGSGGGGSNGDHCPLGPGRCCRLHTVRASLEDLGWADWVLSPREVQVTMCIGACPSQFRAANMHAQIKTSLHRLKPDTVPAPCCVPASYNPMVLIQKTDTGVSLQTFDDLLAKDCHCI chain 2: not shown
9.2 nM | 118% | long-acting GDF15 fusion protein ΔN2, S97Q (Fc fusion) chain 1: APALAGGPSVFLFPPKPKDTLMISRTPEVTCVVVDVSHEDPEVKFNWYVDGVEVHNAKTKPREEQYNSTYRVVSVLTVLHQDWLNGKEYKCKVSNKALPAPIEKTISKAKGQPREPQVYTLPPSREEMTKNQVSLWCLVKGFYPSDIAVEWESNGQPENNYKTTPPVLDSDGSFFLYSKLTVDKSRWQQGNVFSCSVMHEALHNHYTQKSLSLSPGKGGGGSGGGGSGGGGSGGGGSGGGGSNGDHCPLGPGRCCRLHTVRASLEDLGWADWVLSPREVQVTMCIGACPSQFRAANMHAQIKTSLHRLKPDTVPAPCCVPASYNPMVLIQKTDTGVQLQTYDDLLAKDCHCI chain 2: not shown
